B1: RHOBTB2 (parent)
chain: LYTGELDENERDLMHIAHIAELLE

Variants of: B1
Test: protein stability index of a GFP-peptide fusion (GPS, HEK-293T) (PSI 1-6); higher = more stable
Conditions: c terminus: a fixed tail appended
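Also: lentivirally expressed fusions sorted by FACS into six bins by GFP to DsRed ratio, PSI derived from sequencing read proportions per bin multiplied by bin number.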

Protein stability index of substitutions, site by site:
R11: L 1.77; W 2.04; P 2.67; K 2.77; G 3.32; T 2.14; E 2.44; I 2.57; S 2.5; H 2.39; Q 1.96; V 2.04; N 2.1; F 1.83; C 2.66
E8: P 2.15; R 2.46; S 2.29; W 2.88; C 2.05; L 1.57; K 2.28; N 2.21; Y 2.23; A 2.08; M 1.78; T 2.4; Q 2.85
N9: C 1.85; L 1.51; R 2.79; Q 2.25; D 2.59; G 2.82; V 1.89; E 3.15; H 2.54; M 1.86; I 3.37
T3: E 2.98; A 2.58; N 2.25; S 2.61; L 1.94; D 3; H 2.08; M 2.23; V 2.21; P 2.14; G 1.91; R 1.98; W 1.54; I 2.15; K 2.16; F 3.07; Q 2.58
E10: Y 1.95; S 1.98; P 1.88; H 2.05; W 2.41; G 2.02; N 2.83; C 2.6; V 1.89; I 2.26; T 2.66
E5: K 2.75; F 2.71; G 2.34; V 1.81; A 2.12; P 2.52; C 1.67; D 2.63; L 2.02; R 3.45; Q 2.22; H 2.24; M 2.1; I 1.65
H15: M 1.86; L 1.5; F 2.46; A 1.74; D 3.36; K 2.21; T 1.53; N 2.63; R 2.42; Y 1.67; V 1.62; S 2.54; C 2.13; Q 2.4
L13: C 3.45; A 3.08; M 2.92; Y 2.59; Q 3.29; T 3.34; K 3.1; R 3.06; F 3.13; I 2.38; W 2.65; D 3.12; S 3.12
I19: Q 3.37; K 4.3; D 4.85; P 4.81; T 3.79; M 2.52; V 3.1; F 2.67; W 2.28; R 4.17; A 3.38; L 2.31; C 3.3; G 4.45; S 3.26; N 4.47; Y 3.56
L22: E 4.08; F 3.41; K 3.67; M 2.18; S 3.66; G 3.6; D 4.26; H 3.76; W 2.52; V 2.72; N 3.5; P 4.75; A 2.96; C 2.79; R 3.62
D12: C 2.53; L 3.07; T 2.43; W 2.49; A 2.01; G 2.74; P 2.43; F 2.78; I 3.03; K 3.02; Q 2.4; V 2.96; S 2.56; H 3.13
I16: A 4.07; G 4.06; R 4.43; L 2.09; Y 2.93; D 4.12; M 2.51; F 2.71; Q 3.87; C 3.77; N 3.54; S 3.9; H 3.76; V 2.76; E 4.85
A17: Y 1.93; S 3.02; V 1.66; R 2.7; D 3.28; E 2.17; H 3.58; T 1.82; P 3.85; L 1.45; G 2.77; F 2.38; M 1.41; K 2.72
H18: A 1.65; C 2.41; F 1.72; I 2.65; T 1.95; Y 1.59; S 3.03; L 1.23; Q 1.82; W 2.11; D 2.87; V 2.05
E24: S 2.22; C 2.04; G 2.85; Y 2.04; R 2.11; Q 2.38; V 1.97; K 2.12; M 2.17; W 1.91; P 3.33; H 2.21; T 2.3; I 2; F 1.79; A 3.44
Y2: I 2.54; W 1.69; H 3.8; T 3.44; G 3.25; L 2.37; K 2.74; Q 3.01; C 2.04; S 3.34; A 2.73; E 3.49
L1: I 2; R 2.93; T 2.1; H 2.61; A 2.62; K 2.49; E 2.72; F 3.02; S 2.52; V 2.8; C 2.67; D 3.08; Q 3.08; G 2.53
G4: Y 2.2; T 2.25; V 1.44; N 2.05; H 1.99; F 1.93; P 2.46; D 2.53; R 2.29; I 2.56; M 1.77; C 1.87
E21: S 1.7; G 1.92; H 1.8; L 1.92; T 1.75; V 1.04; D 2.77; C 2.37; W 2.1; K 2.07; Y 1.76; I 1.77; R 1.85; M 2.12
L6: R 2.79; Y 2.6; Q 3.86; T 3.57; E 3.4; W 2.44; D 3.27; F 2.46; I 2.64; A 3.38; N 3.49; G 3.11; M 2.56; K 3.31
A20: K 2.99; T 2.76; S 3.08; E 3.85; M 2.01; V 1.93; R 3.22; D 3.34; P 3.79; W 2.37; L 1.61; Q 3.72; I 2.14; Y 2.53; F 1.97
M14: R 2.36; P 3.48; H 3.1; C 2.45; L 2.58; V 2.16; G 3.36; K 2.89; D 3.41; I 2.84; F 2.54; N 3.52; T 3.04; S 3.8
D7: C 1.88; W 1.64; G 2.15; K 2.33; R 2.25; V 2.46; A 2.48; M 1.97; N 2.17; H 1.62; Y 1.89
L23: T 3.99; Y 3.31; C 3.58; G 4.05; S 4.25; P 4.28; H 3.97; V 2.62; I 2.66; N 4.01; R 4.05; A 4.33; D 4.28; Q 4.41; K 3.93; F 2.41; E 5.05
